This is an account of results in patent publication US20250135043A1, “DUAL-TARGETING COMPOUND FOR FIBROBLAST ACTIVATION PROTEIN (FAP) AND INTEGRIN avB3, PREPARATION METHOD THEREFOR AND USE THEREOF” (YANTAI LANNACHENG BIOTECHNOLOGY CO., LTD., priority 2022, published 2025).

The test system of data set [1] is tumors of patients (pancreatic cancer, non small cell lung cancer, small cell lung cancer, nasopharyngeal carcinoma). The conditions noted are these: human, in vivo, iv. How it is done:
In a clinical trial in the real world, a patient with pancreatic cancer (one), a patient with non small cell lung cancer (one), a patient with small cell lung cancer (one) and a patient with nasopharyngeal carcinoma (one) were used as subjects. An intravenous injection dose (1.8-2.2 MBq [0.05-0.06 mCi]/kg) of the ^68Ga-FAPI-RGD (V-25) was calculated based on a body weight of each subject. After intravenous injection was performed for 3 h, data was obtained by a hybrid PET/CT scanner (Discovery MI, GE Health care, Milwaukee, WI, USA). A maximum standard uptake value (SUVmax) was automatically calculated by using a region of interest (ROI) drawn on a transaxial image. The SUVmax value of the ^68Ga-FAPI-RGD (V-25) targeting two targets is higher than that of ^68Ga-FAPI-46 targeting the single target, FAP, in different types of tumors, and the SUVmax value is increased by about 30-50%, proving that the design of targeting two targets can improve the number and utilization efficiency of effective receptors in tumors, thereby improving the uptake in tumors.

Data set [2] has as its system HT1080-FAP tumor-bearing mice. The note with it: mouse, in vivo. How it is done:
Then, under anaesthesia with isoflurane, the ^68Ga-FAPI-RGD (V-25) group was subjected to MicroPET imaging after administration for 0-240 min, respectively, and the other groups were subjected to MicroPET imaging after administration for 0-120 min, respectively. In FIG. 53, Part A, Part C and Part E show maximum-density MicroPET projection images of the HT1080-FAP tumor-bearing mice (n=3) at different time points after the intravenous injection of the three groups of mice, respectively, and Part B, Part D and Part F show uptake in various organs or tissues (such as blood, liver, kidney, tumors and muscles) of the three groups of mice at different time points after the injection, respectively, where three uptake amounts in each group correspond to, from left to right, 0.5 h, 1 h and 2 h after the injection, respectively. […] A specific binding property of the ^68Ga-FAPI-RGD (V-25) to integrin αvβ3 and FAP in vivo is proven by a blocking experiment. The ^68Ga-FAPI-RGD (V-25) and C(RGDfK) or FAPI-02 were co-injected into HT1080-FAP tumor-bearing mice, and MicroPET imaging results and organ uptake results are shown in FIG. 54. […]

The next data set has as its target T1, integrin αvβ3 (Homo sapiens, UniProt P05106+P06756).
T1 construct: endogenous in cells; host or cells: U87MG tumor cells
Kind of data set: Cell binding experiment in U87MG tumor cells.

T1 sequence (P06756 31-889 limits assumed): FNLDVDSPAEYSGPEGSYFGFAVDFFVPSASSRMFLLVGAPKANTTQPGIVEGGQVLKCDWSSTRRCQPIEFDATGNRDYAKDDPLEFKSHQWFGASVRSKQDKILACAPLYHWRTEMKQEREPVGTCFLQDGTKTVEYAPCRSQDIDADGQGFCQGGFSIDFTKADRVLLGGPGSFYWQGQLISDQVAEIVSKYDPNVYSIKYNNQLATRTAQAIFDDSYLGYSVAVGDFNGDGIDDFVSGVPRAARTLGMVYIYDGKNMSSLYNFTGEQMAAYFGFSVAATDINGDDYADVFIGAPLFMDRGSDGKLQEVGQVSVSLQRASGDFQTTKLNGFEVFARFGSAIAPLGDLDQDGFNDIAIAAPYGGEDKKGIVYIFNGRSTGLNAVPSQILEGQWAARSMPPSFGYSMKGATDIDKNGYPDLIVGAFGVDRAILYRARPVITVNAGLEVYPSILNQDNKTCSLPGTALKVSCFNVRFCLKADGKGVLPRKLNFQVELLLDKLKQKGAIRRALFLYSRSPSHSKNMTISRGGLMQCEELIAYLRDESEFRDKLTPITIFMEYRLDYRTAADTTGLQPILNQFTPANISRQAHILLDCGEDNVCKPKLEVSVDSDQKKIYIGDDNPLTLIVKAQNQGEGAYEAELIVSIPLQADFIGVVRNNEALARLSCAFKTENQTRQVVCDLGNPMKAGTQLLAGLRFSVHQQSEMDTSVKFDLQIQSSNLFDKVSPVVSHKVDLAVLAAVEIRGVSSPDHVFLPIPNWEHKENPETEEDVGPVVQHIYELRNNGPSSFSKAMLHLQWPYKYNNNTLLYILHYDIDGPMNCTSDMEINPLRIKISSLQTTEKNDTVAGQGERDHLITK
T1 sequence (P06756 891-1048 partner limits assumed): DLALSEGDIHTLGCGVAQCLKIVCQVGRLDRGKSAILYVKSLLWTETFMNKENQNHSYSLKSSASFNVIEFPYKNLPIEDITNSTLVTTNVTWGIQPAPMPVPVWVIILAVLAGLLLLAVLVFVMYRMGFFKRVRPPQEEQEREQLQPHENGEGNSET
T1 sequence (P05106 27-788): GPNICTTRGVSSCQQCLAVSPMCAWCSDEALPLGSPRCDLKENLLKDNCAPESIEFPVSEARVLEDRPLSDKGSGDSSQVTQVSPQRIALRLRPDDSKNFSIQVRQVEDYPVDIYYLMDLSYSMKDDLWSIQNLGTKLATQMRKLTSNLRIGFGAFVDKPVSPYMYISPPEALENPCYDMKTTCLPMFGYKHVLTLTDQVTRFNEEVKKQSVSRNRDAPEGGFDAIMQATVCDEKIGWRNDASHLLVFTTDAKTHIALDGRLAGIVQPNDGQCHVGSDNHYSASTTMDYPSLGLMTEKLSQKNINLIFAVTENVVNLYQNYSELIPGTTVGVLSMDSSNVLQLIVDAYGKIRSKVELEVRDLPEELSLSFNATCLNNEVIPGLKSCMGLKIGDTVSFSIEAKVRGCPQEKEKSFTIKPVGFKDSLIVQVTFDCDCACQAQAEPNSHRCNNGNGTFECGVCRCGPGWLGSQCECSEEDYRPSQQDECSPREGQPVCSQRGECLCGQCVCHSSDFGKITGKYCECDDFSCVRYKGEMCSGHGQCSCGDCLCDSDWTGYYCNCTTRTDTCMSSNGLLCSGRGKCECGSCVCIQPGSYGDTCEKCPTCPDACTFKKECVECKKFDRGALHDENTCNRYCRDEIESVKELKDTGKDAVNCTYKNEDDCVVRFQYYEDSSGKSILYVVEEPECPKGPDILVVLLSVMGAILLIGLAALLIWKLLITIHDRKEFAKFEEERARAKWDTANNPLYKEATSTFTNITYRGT
Procedure for integrin αvβ3: A cell binding experiment was carried out in HT1080-FAP and U87MG tumor cells, and test results are shown in Part B and Part C of FIG. 52, respectively.

For `N#C[C@@H]1CCCN1C(=O)CNC(=O)c1ccnc2ccc(OCCCN3CCN(C(=O)CCOCCOCCNC(=O)[C@H](CCC(=O)NCCOCCOCCC(=O)NCCCC[C@@H]4NC(=O)[C@@H](Cc5ccccc5)NC(=O)[C@H](CC(=O)O)NC(=O)CNC(=O)[C@H](CCCNC(=N)N)NC4=O)NC(=O)CN4CCN(CC(=O)O)CCN(CC(=O)O)CC4)CC3)cc12` [^68Ga-FAPI-RGD (V-25), metal not drawn], in data set [1], the “SUVmax value compared with 68Ga-FAPI-46” value is “higher” and the “increase of SUVmax value over 68Ga-FAPI-46” value is 30-50%. Also, the “tumor uptake compared with monomers” value in data set [2] was “higher”. The same molecule had a 50% inhibitory concentration (IC50) on integrin αvβ3 of 18.9 nM.

As usually defined, the IC50 is the concentration that inhibits the measured activity by half.
